Test results published in US20220402983A1 (Janssen / Centocor, published 2022).
*1 amine or outer side, *2 acyl side, *3 side chain or, on linkers, in order; H or OH if unused. Bridges are numbered along the chain shown (N, C = ends). [ ]: non-standard residue; d: D form. The star is where a group is joined. dPhe(3,4-diOMe) = D-Phe with 3,4-dimethoxy, COc1ccc(C[C@@H](N[*:1])C(=O)[*:2])cc1OC; αMe2Nal = alpha-methyl-2-Nal, C[C@@](Cc1ccc2ccccc2c1)(N[*:1])C(=O)[*:2]; Trp(7-Ph) = N[C@@H](Cc1c[nH]c2c(-c3ccccc3)cccc12)C(=O)O; Phe(3,4-(OMe)2) = COc1ccc(C[C@H](N)C(=O)O)cc1OC; Trp(5-F) = N[C@@H](Cc1c[nH]c2ccc(F)cc12)C(=O)O; Trp(7-Me) = Cc1cccc2c(C[C@H](N)C(=O)O)c[nH]c12; 2Nal = N[C@@H](Cc1ccc2ccccc2c1)C(=O)O; d(αMeF) = C[C@@](N)(Cc1ccccc1)C(=O)O; AEF = NCCOc1ccc(C[C@H](N)C(=O)O)cc1; αMeF = C[C@](N)(Cc1ccccc1)C(=O)O; αMeE = C[C@](N)(CCC(=O)O)C(=O)O; β3hF = N[C@H](CC(=O)O)Cc1ccccc1; Pen = CC(C)(S)[C@H](N)C(=O)O; αMeK = C[C@](N)(CCCCN)C(=O)O; 3Quin = not defined here; Isobutyryl = CC(C)C(=O)*; dDap = NC[C@@H](N)C(=O)O; Thp = NC1(C(=O)O)CCOCC1; Abu = CC[C@H](N)C(=O)O; Hexanoyl = CCCCCC(=O)*; Aib = CC(C)(N)C(=O)O; Tfa = O=C(C(F)(F)F)*; Ahx = NCCCCCC(=O)O

T1: human IL-23R (interleukin-23 receptor) (human, UniProt Q5VWK5 24-629)
T1 sequence (looked up): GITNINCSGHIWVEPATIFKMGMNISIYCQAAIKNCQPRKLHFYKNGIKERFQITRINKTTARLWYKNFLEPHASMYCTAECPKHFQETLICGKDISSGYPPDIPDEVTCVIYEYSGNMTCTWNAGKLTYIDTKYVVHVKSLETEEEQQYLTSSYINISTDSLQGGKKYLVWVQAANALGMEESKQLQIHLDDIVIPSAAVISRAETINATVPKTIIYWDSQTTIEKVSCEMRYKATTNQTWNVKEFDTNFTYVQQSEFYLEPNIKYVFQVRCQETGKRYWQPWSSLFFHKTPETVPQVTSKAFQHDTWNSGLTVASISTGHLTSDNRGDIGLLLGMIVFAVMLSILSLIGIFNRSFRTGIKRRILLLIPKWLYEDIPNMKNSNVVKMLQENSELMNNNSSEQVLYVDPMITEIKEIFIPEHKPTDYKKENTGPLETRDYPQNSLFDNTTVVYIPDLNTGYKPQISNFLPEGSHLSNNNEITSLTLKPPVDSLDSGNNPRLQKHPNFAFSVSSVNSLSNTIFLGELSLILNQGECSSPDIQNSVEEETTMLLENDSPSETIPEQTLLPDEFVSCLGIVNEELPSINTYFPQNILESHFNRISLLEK

B1: Compound No. 59 (peptide)
peptide: Ac-[dR][Pen]QTWQ[Pen][AEF][2Nal][Thp]K(Hexanoyl)NF-NH2
modifications: disulfide 2-7
SMILES: CCCCCC(=O)NCCCC[C@H](NC(=O)C1(NC(=O)[C@H](Cc2ccc3ccccc3c2)NC(=O)[C@H](Cc2ccc(OCCN)cc2)NC(=O)[C@H]2NC(=O)[C@H](CCC(N)=O)NC(=O)[C@H](Cc3c[nH]c4ccccc34)NC(=O)[C@H]([C@@H](C)O)NC(=O)[C@H](CCC(N)=O)NC(=O)[C@@H](NC(=O)[C@@H](CCCNC(=N)N)NC(C)=O)C(C)(C)SSC2(C)C)CCOCC1)C(=O)N[C@@H](CC(N)=O)C(=O)N[C@@H](Cc1ccccc1)C(N)=O
B2: Compound No. 71 (peptide)
peptide: Ac-[Pen]NT[Trp(7-Me)]K(Ac)[Pen][AEF][2Nal][αMeK]K(Ac)N[Aib][β3hF]-NH2
modifications: disulfide 1-6
SMILES: CC(=O)NCCCC[C@@H]1NC(=O)[C@H](Cc2c[nH]c3c(C)cccc23)NC(=O)[C@H]([C@@H](C)O)NC(=O)[C@H](CC(N)=O)NC(=O)[C@@H](NC(C)=O)C(C)(C)SSC(C)(C)[C@@H](C(=O)N[C@@H](Cc2ccc(OCCN)cc2)C(=O)N[C@@H](Cc2ccc3ccccc3c2)C(=O)N[C@@](C)(CCCCN)C(=O)N[C@@H](CCCCNC(C)=O)C(=O)N[C@@H](CC(N)=O)C(=O)NC(C)(C)C(=O)N[C@H](CC(N)=O)Cc2ccccc2)NC1=O
B3: Compound No. 60 (peptide)
peptide: Ac-[dR][Pen]QTWQ[Pen][AEF][2Nal][Thp]K(Tfa)NF-NH2
modifications: disulfide 2-7
SMILES: CC(=O)N[C@H](CCCNC(=N)N)C(=O)N[C@@H]1C(=O)N[C@@H](CCC(N)=O)C(=O)N[C@@H]([C@@H](C)O)C(=O)N[C@@H](Cc2c[nH]c3ccccc23)C(=O)N[C@@H](CCC(N)=O)C(=O)N[C@H](C(=O)N[C@@H](Cc2ccc(OCCN)cc2)C(=O)N[C@@H](Cc2ccc3ccccc3c2)C(=O)NC2(C(=O)N[C@@H](CCCCNC(=O)C(F)(F)F)C(=O)N[C@@H](CC(N)=O)C(=O)N[C@@H](Cc3ccccc3)C(N)=O)CCOCC2)C(C)(C)SSC1(C)C
B4: Compound No. 73 (peptide)
peptide: Ac-[Pen]N[dK][Trp(7-Me)]K(Ac)[Pen][AEF][2Nal][αMeK]K(Ac)N[dL]-NH2
modifications: disulfide 1-6
SMILES: CC(=O)NCCCC[C@@H]1NC(=O)[C@H](Cc2c[nH]c3c(C)cccc23)NC(=O)[C@@H](CCCCN)NC(=O)[C@H](CC(N)=O)NC(=O)[C@@H](NC(C)=O)C(C)(C)SSC(C)(C)[C@@H](C(=O)N[C@@H](Cc2ccc(OCCN)cc2)C(=O)N[C@@H](Cc2ccc3ccccc3c2)C(=O)N[C@@](C)(CCCCN)C(=O)N[C@@H](CCCCNC(C)=O)C(=O)N[C@@H](CC(N)=O)C(=O)N[C@H](CC(C)C)C(N)=O)NC1=O
B5: Compound No. 61 (peptide)
peptide: Ac-[dR][Pen]QTWQ[Pen][AEF][2Nal][Thp]K(Isobutyryl)NF-NH2
modifications: disulfide 2-7
SMILES: CC(=O)N[C@H](CCCNC(=N)N)C(=O)N[C@@H]1C(=O)N[C@@H](CCC(N)=O)C(=O)N[C@@H]([C@@H](C)O)C(=O)N[C@@H](Cc2c[nH]c3ccccc23)C(=O)N[C@@H](CCC(N)=O)C(=O)N[C@H](C(=O)N[C@@H](Cc2ccc(OCCN)cc2)C(=O)N[C@@H](Cc2ccc3ccccc3c2)C(=O)NC2(C(=O)N[C@@H](CCCCNC(=O)C(C)C)C(=O)N[C@@H](CC(N)=O)C(=O)N[C@@H](Cc3ccccc3)C(N)=O)CCOCC2)C(C)(C)SSC1(C)C
B6: Compound No. 68 (peptide)
peptide: Ac-[Pen]NT[Trp(7-Me)]K(Ac)[Pen][AEF][2Nal][αMeK]K(Ac)N[dL][αMeF]-NH2
modifications: disulfide 1-6
SMILES: CC(=O)NCCCC[C@@H]1NC(=O)[C@H](Cc2c[nH]c3c(C)cccc23)NC(=O)[C@H]([C@@H](C)O)NC(=O)[C@H](CC(N)=O)NC(=O)[C@@H](NC(C)=O)C(C)(C)SSC(C)(C)[C@@H](C(=O)N[C@@H](Cc2ccc(OCCN)cc2)C(=O)N[C@@H](Cc2ccc3ccccc3c2)C(=O)N[C@@](C)(CCCCN)C(=O)N[C@@H](CCCCNC(C)=O)C(=O)N[C@@H](CC(N)=O)C(=O)N[C@H](CC(C)C)C(=O)N[C@@](C)(Cc2ccccc2)C(N)=O)NC1=O
B7: Compound No. 69 (peptide)
peptide: Ac-[Pen]NT[Trp(7-Me)]K(Ac)[Pen][AEF][2Nal][αMeK]K(Ac)N[dL][d(αMeF)]-NH2
modifications: disulfide 1-6
SMILES: CC(=O)NCCCC[C@@H]1NC(=O)[C@H](Cc2c[nH]c3c(C)cccc23)NC(=O)[C@H]([C@@H](C)O)NC(=O)[C@H](CC(N)=O)NC(=O)[C@@H](NC(C)=O)C(C)(C)SSC(C)(C)[C@@H](C(=O)N[C@@H](Cc2ccc(OCCN)cc2)C(=O)N[C@@H](Cc2ccc3ccccc3c2)C(=O)N[C@@](C)(CCCCN)C(=O)N[C@@H](CCCCNC(C)=O)C(=O)N[C@@H](CC(N)=O)C(=O)N[C@H](CC(C)C)C(=O)N[C@](C)(Cc2ccccc2)C(N)=O)NC1=O
B8: Compound No. 72 (peptide)
peptide: Ac-[Pen]N[dDap][Trp(7-Me)]K(Ac)[Pen][AEF][2Nal][αMeK]K(Ac)N[dL]-NH2
modifications: disulfide 1-6
SMILES: CC(=O)NCCCC[C@@H]1NC(=O)[C@H](Cc2c[nH]c3c(C)cccc23)NC(=O)[C@@H](CN)NC(=O)[C@H](CC(N)=O)NC(=O)[C@@H](NC(C)=O)C(C)(C)SSC(C)(C)[C@@H](C(=O)N[C@@H](Cc2ccc(OCCN)cc2)C(=O)N[C@@H](Cc2ccc3ccccc3c2)C(=O)N[C@@](C)(CCCCN)C(=O)N[C@@H](CCCCNC(C)=O)C(=O)N[C@@H](CC(N)=O)C(=O)N[C@H](CC(C)C)C(N)=O)NC1=O
B9: Compound No. 74 (peptide)
peptide: Ac-[Pen]N[dD][Trp(7-Me)]K(Ac)[Pen][AEF][2Nal][αMeK]K(Ac)N[dL]-NH2
modifications: disulfide 1-6
SMILES: CC(=O)NCCCC[C@@H]1NC(=O)[C@H](Cc2c[nH]c3c(C)cccc23)NC(=O)[C@@H](CC(=O)O)NC(=O)[C@H](CC(N)=O)NC(=O)[C@@H](NC(C)=O)C(C)(C)SSC(C)(C)[C@@H](C(=O)N[C@@H](Cc2ccc(OCCN)cc2)C(=O)N[C@@H](Cc2ccc3ccccc3c2)C(=O)N[C@@](C)(CCCCN)C(=O)N[C@@H](CCCCNC(C)=O)C(=O)N[C@@H](CC(N)=O)C(=O)N[C@H](CC(C)C)C(N)=O)NC1=O
B10: Compound No. 70 (peptide)
peptide: Ac-[Pen]NT[Trp(7-Me)]K(Ac)[Pen][AEF][2Nal][αMeK]K(Ac)N[Aib][Ahx]-NH2
modifications: disulfide 1-6
SMILES: CC(=O)NCCCC[C@@H]1NC(=O)[C@H](Cc2c[nH]c3c(C)cccc23)NC(=O)[C@H]([C@@H](C)O)NC(=O)[C@H](CC(N)=O)NC(=O)[C@@H](NC(C)=O)C(C)(C)SSC(C)(C)[C@@H](C(=O)N[C@@H](Cc2ccc(OCCN)cc2)C(=O)N[C@@H](Cc2ccc3ccccc3c2)C(=O)N[C@@](C)(CCCCN)C(=O)N[C@@H](CCCCNC(C)=O)C(=O)N[C@@H](CC(N)=O)C(=O)NC(C)(C)C(=O)NCCCCCC(N)=O)NC1=O

Target: T1, human IL-23R (interleukin-23 receptor)
Assay: cell-based or functional assay

Going from Ac-[Abu]QT[Trp(7-Ph)]K(Ac)C[AEF][2Nal][αMeK]K(Ac)N[αMeF]-NH2 (thioether 1-6) [Compound No. 67] to B2, the “pStat3 HTRF (nM), IC50, DB cells IL23R pSTAT3 cell assay” value (“pStat3 HTRF (nM), IC50” below) falls from 5.52 nM to 3.39 nM.

Going from Ac-[Pen]NT[Trp(7-Ph)]K(Ac)[Pen][AEF][3Quin][αMeK]K(Ac)N[Aib]-NH2 (disulfide 1-6; reading uncertain) [Compound No. 63] to B4, the “pStat3 HTRF (nM), IC50” value rises from 1.02 nM to 51.1 nM.

Going from B6 to B7, the “pStat3 HTRF (nM), IC50” value falls from 7 nM to 2.75 nM.

Going from B8 to B9, the “pStat3 HTRF (nM), IC50” value rises from 52.6 nM to 73.1 nM.

Going from Ac-[Pen]NT[Trp(7-Ph)]K(Ac)[Pen][AEF][3Quin][Thp]EN[Aib]-NH2 (disulfide 1-6; reading uncertain) [Compound No. 62] to B10, the “pStat3 HTRF (nM), IC50” value rises from 0.413 nM to 1.22 nM.

Compared with B1, Ac-[dR][Abu]QTWQC[AEF][2Nal][Thp][αMeE]N[dPhe(3,4-diOMe)]-NH2 (thioether 2-7) [Compound No. 79] is lower in “PBMC pSTAT3 IC50 (nM)” value: 67 nM for the first, 25 nM for the second.

Going from Ac-[dR][Abu]QTWQC[AEF][2Nal][Thp][αMeE]N[Trp(5-F)]-NH2 (thioether 2-7) [Compound No. 81] to Ac-[dR][Abu]QTWQC[AEF][2Nal][Thp][αMeE]N[Phe(3,4-(OMe)2)]-NH2 (thioether 2-7) [Compound No. 78], the “PBMC pSTAT3 IC50 (nM)” value rises from 30 nM to 31 nM.

Going from B3 to Ac-[dR][Abu]QTWQC[AEF][2Nal][Thp]EN[αMe2Nal]-NH2 (thioether 2-7) [Compound No. 80], the “PBMC pSTAT3 IC50 (nM)” value rises from 44 nM to 46 nM.

For B5, the “PBMC pSTAT3 IC50 (nM)” value was 70 nM.
